Source: paper PMC3272265

Tests used:
[1] = two-cell embryos after overnight incubation; details: glycan lost; control: normal eggs
[2] = displacement of Hoechst-labelled sperm by Acr3-EGFP sperm; details: glycan lost; control: normal eggs
[3] = EGFP acrosome status and Alexa 568-SBTI staining; details: glycan lost; control: normal eggs
[4] = mating with proven fertile normal males; details: glycan lost; control: co-caged transgenic control females

B1: ZP3: Zp3Mut (protein)
parent chain: MASSYFLFLCLLLCGGPELCNSQTLWLLPGGTPTPVGSSSPVKVECLEAELVVTVSRDLFGTGKLVQPGDLTLGSEGCQPRVSVDTDVVRFNAQLHECSSRVQMTKDALVYSTFLLHDPRPVSGLSILRTNRVEVPIECRYPRQGNVSSHPIQPTWVPFRATVSSEEKLAFSLRLMEENWNTEKSAPTFHLGEVAHLQAEVQTGSHLPLQLFVDHCVATPSPLPDPNSSPYHFIVDFHGCLVDGLSESFSAFQVPRPRPETLQFTVDVFHFANSSRNTLYITCHLKVAPANQIPDKLNKACSFNKTSQSWLPVEGDADICDCCSHGNCSNSSSSQFQIHGPRQWSKLVSRNRRHVTDEADVTVGPLIFLGKANDQTVEGWTASAQTSVALGLGLATVAFLTLAAIVLAVTRKCHSSSYLVSLPQ
no change: other: in vitro fertilisation rate [1] | other: reversibility of sperm binding [2] | other: induction of sperm acrosome exocytosis [3] | other: in vivo fertility (litter size) [4]
